Test results reported in patent US20110201109.

Biological target: Ronin (protein product of the cDNA clone from the human ES cell cDNA expression library) (UniProt Q96EK4)
Chain of UniProt Q96EK4 (Q96EK4 whole entry): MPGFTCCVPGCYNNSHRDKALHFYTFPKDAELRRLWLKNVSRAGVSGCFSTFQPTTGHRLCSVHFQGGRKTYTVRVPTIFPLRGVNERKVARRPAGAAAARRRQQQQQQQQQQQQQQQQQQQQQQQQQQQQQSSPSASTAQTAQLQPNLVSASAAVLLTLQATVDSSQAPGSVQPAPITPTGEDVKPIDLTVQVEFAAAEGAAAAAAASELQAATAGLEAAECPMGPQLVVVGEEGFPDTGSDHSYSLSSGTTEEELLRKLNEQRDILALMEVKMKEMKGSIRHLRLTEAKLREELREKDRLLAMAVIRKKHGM

Question: With “Caspase-3 (as used in the in vitro transcription/translation Caspase-3 cleavage assay)” as the substance, how does the “in vitro transcription/translation Caspase-3 cleavage assay” value read?
Answer: proved to be an authentic target of Caspase-3 in further analyses
